Data on 4 molecules can be found in patent publication US20180066058A1 (published 2018).

One may read the EC50 as the concentration giving half of the maximal effect. Usually IC50 stands for the concentration needed to halve the response being measured. What is called Kd is the concentration at which binding is half-saturated.

Assay [1] deals with T1, Human ICOS on cells (human, UniProt Q9Y6W8 21-199).
T1 sequence: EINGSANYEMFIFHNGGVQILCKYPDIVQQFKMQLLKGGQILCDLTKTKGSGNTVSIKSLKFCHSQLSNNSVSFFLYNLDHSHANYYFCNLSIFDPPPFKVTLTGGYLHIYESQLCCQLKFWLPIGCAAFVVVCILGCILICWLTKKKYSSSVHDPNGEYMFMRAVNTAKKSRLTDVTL
In words: cell-based or functional assay.

The target in assay [2] is T1, Human ICOS on cells. In words: cell-based or functional assay. The source holds these as a separate data set.
In assay [3] the target is T1, Human ICOS on cells. In words: cell-based or functional assay. This is another data set of the same source.
Assay [4] deals with T1, Human ICOS on cells. Kind of assay: flow cytometry on activated human pan T cells (row Human), first donor column.
The target of assay [5] is T1, Human ICOS on cells. Kind of assay: flow cytometry on activated human pan T cells (row Human), second donor column. (In general: Flow cytometry measures light scatter and fluorescence of single cells or particles in a stream.)
Assay [6] deals with T2, Cynomolgus ICOS on activated cynomolgus T cells (cynomolgus, UniProt Q9Y6W8 21-195 (human entry)).
T2 construct: also called NHP ICOS
T2 chain: T1 sequence with T54K, H81R, A129T, L136F, S152T, D176G, V177T, L179P
In words: flow cytometry, AF647 pre-labelled hIgG1 on activated cynomolgus pan T cells, donor 1. The method, then:
(§1) PBMC from whole blood of 2 Mauritian cynomolgus macaques (Wickham Laboratories) were isolated by gradient centrifugation and cultured for 3 days with CD2/CD3/CD28 MACSiBeads (Miltenyi) to induce ICOS expression on their surface. […] Cells were also labelled with V450-CD3 to assess staining on T-cell subsets. Stained cells were run on Attune (Thermofisher) and staining intensity was presented as mean fluorescence intensity (MFI). EC50 was determined using GraphPad Prism.

The target of assay [7] is T3, human ICOS-mFc (Chimerigen) (human, UniProt Q9Y6W8 21-140).
T3 construct: also called human ICOS receptor; human ICOS Receptor; not shown: mouse Fc of the bought construct
T3 sequence: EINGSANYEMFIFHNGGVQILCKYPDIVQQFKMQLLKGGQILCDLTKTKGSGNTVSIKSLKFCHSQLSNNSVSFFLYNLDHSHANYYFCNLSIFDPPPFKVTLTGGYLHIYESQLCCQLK
Kind of assay: HTRF neutralisation of Alexa 647 human B7-H2 binding to human ICOS-mFc; human IgG1; mean, n = 4. The procedure:
(§2) 5 μl of ICOS receptor (human ICOS-mFc, 20 nM, 5 nM final or mouse ICOS-mFc 4 nM, 1 nM final (Chimerigen)) was added to required wells. Plate was incubated for 1 hr at room temperature (RT).
(§3) Finally, 5 μl of anti-mouse IgG donor mAb (Southern Biotech) labelled with europium cryptate (Cis Bio), 40 nM, 10 nM final was added to each well and the assay was left in the dark at RT to incubate for a further 2 hours. After incubation, assay was read on Envision plate reader (Perkin Elmer) using a standard HTRF protocol. […] Titration curves and IC50 values [M] were plotted using Graphpad (Prism). IC50 values were calculated by first transforming the data using equation X=Log(X). The transformed data was then fitted using nonlinear regression, using fitting algorithm, log (inhibitor) vs. response—variable slope (four parameters).
(In general: In TR-FRET formats the signal depends on donor and acceptor labels being close together.)

Assay [8] has as its target T4, mouse ICOS-mFc (Chimerigen) (mouse, UniProt Q9WVS0 21-141, limits assumed).
T4 construct: also called mouse ICOS receptor; mouse ICOS Receptor; not shown: mouse Fc of the bought construct
T4 sequence: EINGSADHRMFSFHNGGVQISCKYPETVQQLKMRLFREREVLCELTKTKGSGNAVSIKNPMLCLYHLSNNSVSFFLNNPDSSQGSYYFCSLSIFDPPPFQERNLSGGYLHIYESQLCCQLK
Kind of assay: HTRF neutralisation of Alexa 647 mouse B7-H2 binding to mouse ICOS-mFc; human IgG1; mean, n = 3. The method, then:
as §2, §3

Assay [9] has as its target T1, Human ICOS on cells. Kind of assay: flow cytometry on activated primary human pan T cells; naked hIgG1 detected with AF647 goat anti-human Fc. The procedure:
(§4) Pan T-cells (CD3 cells) were isolated and cultured for 3 days with CD3/CD28 dynabeads (Thermofisher) to induce ICOS expression on their surface. […] Stained cells were ran on the Attune and staining intensity was presented as Mean of fluorescence intensity (MFI). EC50 was determined using GraphPad Prism.

Assay [10] addresses T5, Human ICOS extracellular domain fused to human Fc (human, UniProt Q9Y6W8 21-140).
T5 construct: Dimeric protein made in house from NCBI NP_036224.1; also called hICOS; hICOS Fc; not shown: human Fc region
T5 sequence: T3 sequence
In words: SPR (ProteOn XPR36), human ICOS ECD-Fc captured, Fab analyte, pH 5.5, 37 C. The method, then: (§5) In addition, a comparison was performed of antibody:antigen binding affinity at different pH values. As before, the dimeric human ICOS protein, presented as the extracellular domain of ICOS fused to a human Fc region, was captured on the anti-human Fc capture surface created using the 3 antibody cocktail, immobilised on the GLC biosensor chip by primary amine coupling. SPR analysis of recombinantly expressed anti-ICOS Fabs was carried out on the ProteOn XPR36 Array system (Biorad). The Fab fragments were used as analyte to generate binding sensorgrams, which were double referenced with a buffer injection (i.e., 0 nM). The subsequent referenced sensorgrams were fitted to the 1:1 model inherent to the ProteOn analysis software. […] Data were fitted to the 1:1 model.

Assay [11] has as its target T5, Human ICOS extracellular domain fused …. In words: SPR (ProteOn XPR36), human ICOS ECD-Fc captured, Fab analyte, pH 7.4, 37 C. The procedure: as §5
The target is the same in assay [12]. In words: SPR (ProteOn XPR36), human ICOS ECD-Fc captured, Fab analyte, pH 7.6, 25 C.
For assay [13] the target is unchanged. Kind of assay: SPR (ProteOn XPR36), human ICOS ECD-Fc captured, Fab analyte, pH 7.6, 37 C. The method, then: as §5
For assay [14] the target is unchanged. In words: SPR (ProteOn XPR36), Fc-tagged ICOS captured on anti-human IgG, Fab analyte, 25 C. The procedure:
(§6) Fab affinities of the ICOS leads were generated by SPR using the ProteOn XPR3 6 (BioRad). An anti-human IgG capture surface was created on a GLC biosensor chip by primary amine coupling, immobilising three anti-human IgG antibodies (Jackson Labs 109-005-008, 109-006-008 and 309-006-008). […] Binding sensorgrams were double referenced using a buffer injection (i.e. 0 nM), and the data was fitted to the 1:1 model inherent to the ProteOn XPR36 analysis software. The assay was run at 25° C. and using HBS-EP as running buffer.

Assay [15] addresses T6, Mouse ICOS extracellular domain fused to human Fc (mouse, UniProt Q9WVS0 21-141).
T6 construct: Made in house from NCBI NP_059508.2; also called mICOS; mICOS Fc; not shown: human Fc region
T6 sequence: T4 sequence
Described as above. The method, then:
as §6

The target in assay [16] is T5, Human ICOS extracellular domain fused …. Kind of assay: SPR (ProteOn XPR36), human ICOS ECD-Fc captured, Fab analyte, pH 5.5, 37 C (second run). The procedure:
as §5

Assay [17] has as its target T2, Cynomolgus ICOS on activated cynomolgus …. In words: flow cytometry, AF647 pre-labelled hIgG1 on activated cynomolgus pan T cells, donor 2. The procedure: as §1
In assay [18] the target is T1, Human ICOS on cells. Kind of assay: flow cytometry on activated primary human pan T cells; indirect binding assay; reference STIM001 hIgG1. The method, then:
as §4

Residue numbers refer to the chain shown, from its start.

B1: STIM001 human IgG1 (antibody, V domains shown)
VH: QVQVVQSGAEVKKPGASVKVSCKASGYTFSTFGITWVRQAPGQGLEWMGWISAYNGDTNYAQNLQGRVIMTTDTSTSTAYMELRSLRSDDTAVYYCARSSGHYYYYGMDVWGQGTTVTVSS
VL: DIVMTQSPLSLPVTPGEPASISCRSSQSLLHSNEYNYLDWYLQKPGQSPQLLIFLGSNRASGVPDRFSGSGSGTDFTLKITRVEAEDVGIYYCMQSLQTPLTFGGGTKVEIKR
notes: Human IgG1 format; Conjugated with AF647 in the direct staining assays, coupled to beads or plates in the MJ cell assays; also called STIM001 (hIgG1); STIM001 hIgG1
B1: in assay [1], the “EC50 (Molar unit), NK primary cells ADCC assay on MJ cells, 2 hour time point, Donor 1” value was 0.121 nM and the “EC50 (Molar unit), NK primary cells ADCC assay on MJ cells, 2 hour time point, Donor 2” value amounted to 0.529 nM. For the same molecule, in assay [2], the “EC50 (Molar unit), NK primary cell ADCC assay on MJ cells, 2 hour time point, Donor 1” value came out at 0.121 nM; the “EC50 (Molar unit), NK primary cell ADCC assay on MJ cells, 2 hour time point, Donor 2” value amounted to 0.529 nM; the “EC50 (Molar unit), NK primary cell ADCC assay on MJ cells, 2 hour time point, Donor 3” value was 2.92 nM. Besides, in [3], the “EC50 (Molar unit), NK primary cell ADCC assay on ICOS-transfected CCRF-CEM cells, 4 hour time point, Donor 4” value is 0.00392 nM; the “EC50 (Molar unit), NK primary cell ADCC assay on ICOS-transfected CCRF-CEM cells, 4 hour time point, Donor 5” value turned out to be 0.00395 nM; the “EC50 (Molar unit), NK primary cell ADCC assay on ICOS-transfected CCRF-CEM cells, 4 hour time point, Donor 6” value was 0.00375 nM. For the same molecule, in [4], a half-maximal response (EC50) required 221 nM. In assay [5], the EC50 was found to be 121 nM. The molecule further showed a half-maximal effective concentration (EC50) in [6] of 222 nM. Also, the IC50 in assay [7] was determined as 2.2 nM. In assay [8], this molecule displayed an IC50 of 6.5 nM. This molecule also showed an EC50 in [9] of 17 nM.

B2: STIM001 Fab (Fab, V domains shown)
VH: B1 VH
VL: DIVMTQSPLSLPVTPGEPASISCRSSQSLLHSNEYNYLDWYLQKPGQSPQLLIFLGSNRASGVPDRFSGSGSGTDFTLKITRVEAEDVGIYYCMQSLQTPLTFGGGTKVEIK
notes: Recombinantly expressed purified Fab
Consider B2, for which the Kd was found to be 73.1 nM in assay [10]; 63.5 nM in [11]; 44 nM in [12]; 42.6 nM in assay [13]; 44 nM in assay [14]; 407 nM in assay [15]. Also, in assay [16], binding was put at a Kd of 80.3 nM.

B3: STIM003 human IgG1 (antibody, V domains shown)
VH: EVQLVESGGGVVRPGGSLRLSCVASGVTFDDYGMSWVRQAPGKGLEWVSGINWNGGDTDYSDSVKGRFTISRDNAKNSLYLQMNSLRAEDTALYYCARDFYGSGSYYHVPFDYWGQGILVTVSS
VL: EIVLTQSPGTLSLSPGERATLSCRASQSVSRSYLAWYQQKRGQAPRLLIYGASSRATGIPDRFSGDGSGTDFTLSISRLEPEDFAVYYCHQYDMSPFTFGPGTKVDIKR
notes: Human IgG1 format; Conjugated with AF647 in the direct staining assays, coupled to beads or plates in the MJ cell assays; also called STIM003 (hIgG1); STIM003 hIgG1
As for B3, the “EC50 (Molar unit), NK primary cell ADCC assay on MJ cells, 2 hour time point, Donor 1” value in assay [2] stood at 0.00233 nM. In addition, the “EC50 (Molar unit), NK primary cell ADCC assay on MJ cells, 2 hour time point, Donor 2” value in assay [2] amounted to 0.0358 nM. For the same molecule, the “EC50 (Molar unit), NK primary cell ADCC assay on MJ cells, 2 hour time point, Donor 3” value in assay [2] is 0.101 nM. Moreover, the “EC50 (Molar unit), NK primary cell ADCC assay on ICOS-transfected CCRF-CEM cells, 4 hour time point, Donor 4” value in assay [3] is around 0.003 nM. Also, the “EC50 (Molar unit), NK primary cell ADCC assay on ICOS-transfected CCRF-CEM cells, 4 hour time point, Donor 5” value in assay [3] was 0.000895 nM. Further, the “EC50 (Molar unit), NK primary cell ADCC assay on ICOS-transfected CCRF-CEM cells, 4 hour time point, Donor 6” value in assay [3] was determined as 0.00103 nM. For the same molecule, the EC50 in assay [4] worked out at 2.29 nM; in assay [5], 0.895 nM; in assay [6] it was 4.58 nM; in assay [17] it was 4.83 nM; in assay [9] it was 0.148 nM. Also, the IC50 in assay [7] came out at 1.3 nM; in assay [8] it was 0.1 nM. In assay [18], the “fold lower EC50 than STIM001” value was around 100 fold.

B4: STIM003 Fab (Fab, V domains shown)
VH: B3 VH
VL: EIVLTQSPGTLSLSPGERATLSCRASQSVSRSYLAWYQQKRGQAPRLLIYGASSRATGIPDRFSGDGSGTDFTLSISRLEPEDFAVYYCHQYDMSPFTFGPGTKVDIK
notes: as for B2
B4: the Kd in [10] was 1.02 nM; in assay [11], 1.71 nM; in assay [12] it was 1.31 nM; in [13], 1.98 nM; in assay [14], 1.3 nM; in assay [15], 0.4 nM. In addition, in assay [16], the affinity, expressed as Kd, was 1.15 nM.
